Measurements published in patent US20260028391A1.

Experiments:
Assay in all cases: FACS, % binding to RSV F A variants
[1] = biological target: RSV F A N208Y-N671I (RSV A, strain A2) (UniProt P03420)
[2] = biological target: RSV F A S433P (RSV A, strain A2) (UniProt P03420)
[3] = biological target: RSV F A S433P-G446E (RSV A, strain A2) (UniProt P03420)

B1: MPK65-v2-v1.2 (antibody, V domains shown)
VH: QVPLVQSGAEVKKPGESLKISCKGSGYSFINYWIGWVRQMPGKGLEWMGVIYPFDSDTKYSPSFQGHVTISADKSSNTAYVQWSSLKASDTAMYYCARFTFGIAVVTDDVSGEGQAFEIWGQGTMVTVSS
VL: QIVMMQSPATLSVSPGERATLSCRASQSVAGNLAWYQQRPGQAPRLLIYGASTRATGVPARFSGSGSETEFTLTISSLQSEDFAVYYCHQYSNLPQAFGQGTRLDIK
**Q.** For B1, which % binding [1] is on record?
**A.** 0.38%

**Q.** And the % binding [2]?
**A.** 31.7%

**Q.** What about the % binding [3] of the same binder?
**A.** 32.9%
